Assay results reported in article PMC8152229, “Structural and Functional Peculiarities of Cytoplasmic Tropomyosin Isoforms, the Products of TPM1 and TPM4 Genes” (International Journal of Molecular Sciences, 2021).

biological target: F-actin from rabbit skeletal muscle, stabilised by phalloidin (rabbit, UniProt P68135 1-377); assay: co-sedimentation; 10 uM phalloidin-stabilized F-actin mixed with increasing Tpm (0 to 5.5-6 uM; up to almost 40 uM for Tpm1.12); 30 mM Hepes-Na pH 7.3, 200 mM NaCl; 40 min at 25 °C; 100,000 x g for 40 min; SDS-PAGE of pellet and supernatant; K50% = Tpm concentration at which actin is half-saturated; details: both partners purified

Row | Binder | K50%
1 | Tropomyosin isoform Tpm4.2 (natural protein, cytoplasmic LMW isoform Tpm4.2 of the TPM4 gene (~247 residues), exons 1b, 9d; an N-terminal extension is stated only for the HMW isoforms; source: E. coli C41(DE3), purified (anion exchange, HiTrap QHP); reduced with DTT before experiments) not shown | 1.07 µM
2 | Tropomyosin isoform Tpm1.7 with Ala-Ser N-terminal extension (natural protein, Ala-Ser N-terminal extension that mimics natural N-terminal acetylation; cytoplasmic HMW isoform Tpm1.7 of the TPM1 gene (~284 residues), exons 1a2b, 6a, 9d; Alpha-helical coiled-coil dimer; source: E. coli C41(DE3), purified (anion exchange, HiTrap QHP)) not shown | 0.4 µM
3 | Tropomyosin isoform Tpm1.12 (natural protein, cytoplasmic LMW isoform Tpm1.12 of the TPM1 gene (~247 residues; exon 9c three residues shorter than 9d), exons 1b, 9c; has Cys-154; no N-terminal extension; source: E. coli C41(DE3), purified (anion exchange, HiTrap QHP); reduced with DTT before experiments) not shown | 14.9 µM
